According to the supplement of paper PMC9112550, “Optimization of the antimicrobial peptide Bac7 by deep mutational scanning” (BMC Biology, 2022):

System: Escherichia coli TOP10
Test: shrunken log2 fold change of peptide-encoding DNA abundance (4.5 h post-induction vs induction); higher = less antimicrobial activity (less host growth inhibition)
Settings: time post-induction: 4.5 h; library: site-saturation at positions 5, 18, 19, 20
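Further: peptides expressed intracellularly from a pBAD plasmid library in pooled LB shake-flask culture, induced with 0.3% L-arabinose, DNA abundance read by NGS, three biological replicates, DESeq2 with apeglm shrinkage.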

| Sequence | shrunken log2 fold change |
| --- | --- |
| RRIRHRPPRLPRPRPRPYWLPRP | -0.85 |
| RRIRDRPPRLPRPRPRPQHPPRP | -0.00435 |
| RRIRYRPPRLPRPRPRPQDRPRP | -0.00674 |
| RRIRSRPPRLPRPRPRPCHNPRP | -0.364 |
| RRIRGRPPRLPRPRPRPQFPPRP | -0.0214 |
| RRIRRRPPRLPRPRPRPPIYPRP | 0.786 |
| RRIRARPPRLPRPRPRPCEMPRP | 0.345 |
| RRIRFRPPRLPRPRPRPRWTPRP | 1.19 |
| RRIRKRPPRLPRPRPRPHAYPRP | 0.0163 |
| RRIRLRPPRLPRPRPRPVSWPRP | 0.22 |
| RRIRLRPPRLPRPRPRPKASPRP | -0.231 |
| RRIRYRPPRLPRPRPRPTHEPRP | 0.0198 |
| RRIRHRPPRLPRPRPRPALPPRP | 0.0229 |
| RRIRERPPRLPRPRPRPMRRPRP | -0.0292 |
| RRIRHRPPRLPRPRPRPSEDPRP | -0.00172 |
| RRIRWRPPRLPRPRPRPTFDPRP | 0.273 |
| RRIRIRPPRLPRPRPRPGVAPRP | 0.276 |
| RRIRVRPPRLPRPRPRPMWPPRP | 0.0245 |
| RRIRFRPPRLPRPRPRPILEPRP | -0.133 |
| RRIRMRPPRLPRPRPRPEGYPRP | 2.64 |
| RRIRLRPPRLPRPRPRPYALPRP | -0.141 |
| RRIRLRPPRLPRPRPRPSCDPRP | -0.417 |
| RRIRLRPPRLPRPRPRPDIFPRP | -0.282 |
| RRIRCRPPRLPRPRPRPNNVPRP | -0.687 |
| RRIRQRPPRLPRPRPRPYVCPRP | -0.0671 |
| RRIRQRPPRLPRPRPRPTHNPRP | 0.357 |
| RRIRRRPPRLPRPRPRPWFHPRP | 0.0067 |

| Sequence | shrunken log2 fold change |
| --- | --- |
| RRIRGRPPRLPRPRPRPFNEPRP | -0.231 |
| RRIRFRPPRLPRPRPRPVPHPRP | -0.342 |
| RRIRIRPPRLPRPRPRPILVPRP | 0.0273 |
| RRIRERPPRLPRPRPRPPAYPRP | -0.173 |
| RRIRLRPPRLPRPRPRPVMWPRP | 0.283 |
| RRIRKRPPRLPRPRPRPQHWPRP | 0.474 |
| RRIRYRPPRLPRPRPRPGKFPRP | -0.0427 |
| RRIRGRPPRLPRPRPRPRLDPRP | 0.692 |
| RRIRARPPRLPRPRPRPCPDPRP | -0.161 |
| RRIRDRPPRLPRPRPRPISRPRP | -0.032 |
| RRIRMRPPRLPRPRPRPQHHPRP | -0.0825 |
| RRIRNRPPRLPRPRPRPVDVPRP | -0.122 |
| RRIRPRPPRLPRPRPRPKWKPRP | -0.0038 |
| RRIRPRPPRLPRPRPRPESEPRP | -0.0127 |
| RRIRTRPPRLPRPRPRPNRIPRP | -0.294 |
| RRIRMRPPRLPRPRPRPFWAPRP | 0.509 |
| RRIRIRPPRLPRPRPRPKQAPRP | 0.0872 |
| RRIRCRPPRLPRPRPRPYRKPRP | -0.49 |
| RRIRQRPPRLPRPRPRPFTCPRP | -0.158 |
| RRIRCRPPRLPRPRPRPHIFPRP | -1.15 |
| RRIRNRPPRLPRPRPRPMVNPRP | -0.00142 |
| RRIRYRPPRLPRPRPRPDMAPRP | -0.255 |
| RRIRARPPRLPRPRPRPIYEPRP | -0.352 |
| RRIRQRPPRLPRPRPRPNSHPRP | -0.191 |
| RRIRYRPPRLPRPRPRPFGMPRP | -0.00968 |
| RRIRMRPPRLPRPRPRPWGYPRP | 0.101 |
| RRIRERPPRLPRPRPRPYIEPRP | -0.266 |
